IntAct's records for PubMed 25312756

B1: Ras-related protein Rab-27A (Homo sapiens), P51159 (parent)
chain: MSDGDYDYLIKFLALGDSGVGKTSVLYQYTDGKFNSKFITTVGIDFREKRVVYRASGPDGATGRGQRIHLQLWDTAGQERFRSLTTAFFRDAMGFLLLFDLTNEQSFLNVRNWISQLQMHAYCENPDIVLCGNKSDLEDQRVVKEEEAIALAEKYGIPYFETSAANGTNISQAIEMLLDLIMKRMERCVDKSWIPEGVVRSNGHASTDQLSEEKEKGACGC
partner: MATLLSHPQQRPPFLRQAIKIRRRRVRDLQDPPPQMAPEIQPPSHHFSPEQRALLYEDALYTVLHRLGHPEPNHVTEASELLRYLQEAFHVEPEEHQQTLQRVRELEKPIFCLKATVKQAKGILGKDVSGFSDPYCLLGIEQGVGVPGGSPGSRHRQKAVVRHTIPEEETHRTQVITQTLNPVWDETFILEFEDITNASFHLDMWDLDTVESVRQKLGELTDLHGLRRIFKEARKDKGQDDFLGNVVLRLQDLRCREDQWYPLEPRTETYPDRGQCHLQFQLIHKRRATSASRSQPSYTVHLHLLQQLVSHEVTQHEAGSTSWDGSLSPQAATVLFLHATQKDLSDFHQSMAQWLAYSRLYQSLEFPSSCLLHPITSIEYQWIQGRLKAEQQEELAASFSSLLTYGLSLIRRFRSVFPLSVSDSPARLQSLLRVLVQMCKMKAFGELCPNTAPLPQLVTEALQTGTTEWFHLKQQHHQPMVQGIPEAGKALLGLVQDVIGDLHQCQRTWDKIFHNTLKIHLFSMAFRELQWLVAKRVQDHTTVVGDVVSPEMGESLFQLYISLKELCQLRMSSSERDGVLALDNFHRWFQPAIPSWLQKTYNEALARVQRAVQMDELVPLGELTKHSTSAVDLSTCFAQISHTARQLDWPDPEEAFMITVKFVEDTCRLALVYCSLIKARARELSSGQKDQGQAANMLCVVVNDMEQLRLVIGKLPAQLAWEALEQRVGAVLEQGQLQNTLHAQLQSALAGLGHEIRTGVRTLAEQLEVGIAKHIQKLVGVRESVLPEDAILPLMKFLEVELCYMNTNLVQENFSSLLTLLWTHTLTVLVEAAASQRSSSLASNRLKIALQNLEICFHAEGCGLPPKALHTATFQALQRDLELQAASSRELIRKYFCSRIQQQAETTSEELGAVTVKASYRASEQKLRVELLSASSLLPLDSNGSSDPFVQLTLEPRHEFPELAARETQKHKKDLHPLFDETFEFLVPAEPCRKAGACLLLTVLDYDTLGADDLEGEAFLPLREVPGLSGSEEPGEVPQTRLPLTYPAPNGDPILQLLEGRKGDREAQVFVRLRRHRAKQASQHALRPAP
B2: Ras-related protein Rab-27A (Homo sapiens), P51159 (parent)
chain: B1 chain
partner: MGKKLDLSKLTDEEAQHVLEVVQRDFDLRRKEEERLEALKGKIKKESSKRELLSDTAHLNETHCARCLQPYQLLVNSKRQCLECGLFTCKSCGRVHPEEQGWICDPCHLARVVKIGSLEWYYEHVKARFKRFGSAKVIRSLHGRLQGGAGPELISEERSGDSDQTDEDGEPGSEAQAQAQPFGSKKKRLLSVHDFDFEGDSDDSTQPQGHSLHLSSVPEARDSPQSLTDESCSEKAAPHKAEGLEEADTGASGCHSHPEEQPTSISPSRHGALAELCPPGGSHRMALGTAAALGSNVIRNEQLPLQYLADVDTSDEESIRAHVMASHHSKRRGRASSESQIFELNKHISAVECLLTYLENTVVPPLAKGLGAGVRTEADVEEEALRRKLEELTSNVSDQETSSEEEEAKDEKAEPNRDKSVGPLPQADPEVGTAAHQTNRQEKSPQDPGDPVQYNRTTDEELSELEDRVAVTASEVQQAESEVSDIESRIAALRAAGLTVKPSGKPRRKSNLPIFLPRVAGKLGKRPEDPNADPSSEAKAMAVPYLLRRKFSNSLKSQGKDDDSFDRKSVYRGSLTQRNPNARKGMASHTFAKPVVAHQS

Variants of: B1
Conditions: with un13d_human UNC13D

Row | Variant | effect of a mutation on the interaction
1 | MSDGDYDYLIKFLALGDSGVGKTSVLYQYTDGKFNSKFITTVGIDFREKRVVYRASGPDGATGRGQRIHLQLWDTAGQERFRSLTTAFFRDAMGFLLLFDLTNEQSFLNVRNWISQLQMHAYCENPDIVLCGNKSDLEDQRVVKEEEAIALAEKYGIPCFETSAANGTNISQAIEMLLDLIMKRMERCVDKSWIPEGVVRSNGHASTDQLSEEKEKGACGC [Y159C] | disrupting interaction strength
2 | MSDGDYDYLIKFLALGDSGVGKTSVLYQYTDGKFNSKFITTVGIDFREKRVVYRASGPDGATGRGQRIHLQLWDTVGQERFRSLTTAFFRDAMGFLLLFDLTNEQSFLNVRNWISQLQMHAYCENPDIVLCGNKSDLEDQRVVKEEEAIALAEKYGIPYFETSAANGTNISQAIEMLLDLIMKRMERCVDKSWIPEGVVRSNGHASTDQLSEEKEKGACGC [A76V] | decreasing interaction strength
3 | MSDGDYDYLIKFLALGDSGVGKTSVLYQYTDGKFNSKFITTVGIDFREKRVVYRASGPDGATGRGQRIHLQLWDTAGQERFRSLTTAFFRDAMGFLLLFDLTNEQSFLNVRNWISQLQMHAYCENPDIVLCGNKSDLEDQRVVKEEEAIALAEKYGIPYFETRAANGTNISQAIEMLLDLIMKRMERCVDKSWIPEGVVRSNGHASTDQLSEEKEKGACGC [S163R] | decreasing interaction strength

Variants of: B2
Conditions: with melph_human MLPH

Row | Variant | effect of a mutation on the interaction
4 | MSDGDYDYLIKFLALGDSGVGKTSVLYQYTDGKFNSKFITTVGIDFREKRVVYRASGPDGATGRGQRIHLQLWDTAGQERFRSLTTAFFRDAMGFLLLFDLTNEQSFLNVRNWISQLQMHAYCENPDIVLCGNKSDLEDQRVVKEEEAIALAEKYGIPCFETSAANGTNISQAIEMLLDLIMKRMERCVDKSWIPEGVVRSNGHASTDQLSEEKEKGACGC [Y159C] | with no effect
5 | MSDGDYDYLIKFLALGDSGVGKTSVLYQYTDGKFNSKFITTVGIDFREKRVVYRASGPDGATGRGQRIHLQLWDTVGQERFRSLTTAFFRDAMGFLLLFDLTNEQSFLNVRNWISQLQMHAYCENPDIVLCGNKSDLEDQRVVKEEEAIALAEKYGIPYFETSAANGTNISQAIEMLLDLIMKRMERCVDKSWIPEGVVRSNGHASTDQLSEEKEKGACGC [A76V] | with no effect
6 | MSDGDYDYLIKFLALGDSGVGKTSVLYQYTDGKFNSKFITTVGIDFREKRVVYRASGPDGATGRGQRIHLQLWDTAGQERFRSLTTAFFRDAMGFLLLFDLTNEQSFLNVRNWISQLQMHAYCENPDIVLCGNKSDLEDQRVVKEEEAIALAEKYGIPYFETRAANGTNISQAIEMLLDLIMKRMERCVDKSWIPEGVVRSNGHASTDQLSEEKEKGACGC [S163R] | decreasing interaction strength
